The values below come from patent US20150351390A1, “COMPOSITIONS AND METHODS FOR AUXIN-ANALOG CONJUGATION” (PIONEER HI-BRED INTERNATIONAL, INC., priority 2012, published 2015).

Type in all cases: biochemical
A short description of assay [1]: LC-MS assay of GH3 conjugation of dicamba with Asp or Glu. The note with it: LC-MS; for Detected auxin conjugates: Dicamba-Asp: dicamba with Asp; for Detected auxin conjugates: Dicamba-Glu: dicamba with Glu. The procedure: To detect and monitor the formation of acyl conjugates with 2,4-D or dicamba, a sensitive LC-MS method was developed using the respective amino acid conjugate standards. […] […] […] The supernatant was diluted 20× in water and then analyzed by LC-MS (AB Sciex 4000 QTrap coupled with Shimadzu Nexera UHPLC) using a Phenomenex Luna 3 μm Phenyl-Hexyl (00B-4256-Y0) column. The concentration of the conjugates was calculated based on the standards. Kinetic parameters were estimated by fitting initial velocity values to the Michaelis-Menten equation.
The GH3 superfamily conjugase activity analysis of IAA, 2,4-D or dicamba with Asp or Glu was done using LC-MS to analyze the final conjugate products as described in Example 1. Protein sequences of GH3 homologs (Table 3) were obtained from public databases (NCBI, http://www.ncbi.nlm.nih.gov/) by Blast analysis of AtGH3.17 protein sequence (accession # Q9FZ87). Coding sequences were designed for optimal expression in E. coli based on the protein sequences and synthesized. Synthesized coding sequences along with N-term his-tag coding sequences were cloned into a pET24a-based E. coli expression vector. The E. coli expression vectors were transformed into OverExpress C41(DE3) cells (Lucigen) for protein expression. Recombinant E. coli strains were inoculated into 5 ml LB media supplemented with 40 mg/L kanamycin and cultured overnight at 37° C. The overnight culture (0.5 mL) was inoculated into 50 mL LB medium plus 40 mg/L kanamycin and grown at 30° C. until OD600 reached 0.6. The cultures were induced with 0.2 mM IPTG at 16° C., 230 rpm overnight. Cells were harvested by centrifugation at 7,000 rpm for 10 mins. The cell pellet from 50 mL of cell culture was frozen and thawed twice and then lysed in 800 μL lysis buffer A (150 mM NaCl, 50 mM Tris-HCl pH 8.0, 5 mM MgCl2, 10% glycerol) plus 20 mM imidazole, 1 mM DTT, 0.2 mg/ml lysozyme, 1/200 protease inhibitor cocktail (EMD set3, EDTA free) and 1/2000 endonuclease. Lysate was then centrifuged at 13,000 rpm for 30 min at 4° C. Supernatant was loaded onto 200 μL Ni-NTA columns pre-equilibrated with buffer A with 20 mM imidazole at 4° C. Each column was then washed with (1) 2×800 μL of buffer A with 10 mM imidazole, (2) 2×800 μL of buffer A with 20 mM imidazole and (3) 2×200 μL of buffer A with 50 mM imidazole. Protein was eluted with 200 μL of buffer A with 250 mM imidazole. The concentration was measured by Bradford assay. Purified protein was used in conjugation reaction assays as described in example 1.

Assay [2] is described as follows: LC-MS assay of GH3 conjugation of 2,4-D with Asp or Glu. To be noted: LC-MS; for Detected auxin conjugates: 2,4-D-Asp: 2,4-D with Asp; for Detected auxin conjugates: 2,4-D-Glu: 2,4-D with Glu. The essentials: (§1)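 Kinetic parameters come from Michaelis-Menten fits of initial velocities. Velocities reflect LC-MS quantification, against standards, of Asp or Glu conjugates formed by purified GH3 (44 to 164 μg/mL) with 5 mM ATP and MgCl2 at pH 8.0, 30° C.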

Assay [3] is described as follows: LC-MS assay of GH3 conjugation of IAA with Asp or Glu. To be noted: LC-MS; for Detected auxin conjugates: IAA-Asp: IAA with Asp; for Detected auxin conjugates: IAA-Glu: IAA with Glu. The essentials:
as §1

B1: SlGH3-8: GH3 protein, Solyc07g054580.2 (protein, listed as Solanum lycopersicum)
chain: MTNINCKDKIETDIIGWFDEVADDSAVVQRRTLRRILEMNHGVEYLKKWIGDIKIEEIDENLLESTYASLVPLASHADIEPFTKRIADGDTTPLLTQQPITNLSLSSGTTDGRQKFVPFTHHSSQTTLQIFKLAAAYRSRIYPIRRGGRILEFIYSSKQCKTKGGIIVGTATTHYYASDEFKIKQQQTKSFTCSPQEVISCGDYKQSTYCHLLLGLYFSHEVEFVTSAFAYSIVEAFRSFEEMWKELCHDIREGSLSSIINIDKVRKSVSGITQPNPELASRIESICVELERADWFSIIPKLWPNAKYVYSIMTGSMMPYLTKLRHYAGELPLVSADYGSTESWIGVNLDPSNPPEKVTFAVVPTFSYFEFIPLYKHKSNYNYQNVNLNSTNDDYIEGNSMPLCQVKSGQQYEIVITTFTGLYRYRLGDVVEVDGFYKKTPKLNFICRRNLILAINIDKNTEKDLQLVVERGARILSKGTRRAELVDFTSHANVTKQPGHYVIYWEIKGEIDEKVLDECCRDMDASFVDHGYVVSRRTKSIGPLELCIVERGTFKKILESYIGNGAALSQFKTPRCTSNKELLNILNVCTIKRFYSTAYG
As to B1, in assay [1], the “Detected auxin conjugates: Dicamba-Asp” value is reported as “No” and the “Detected auxin conjugates: Dicamba-Glu” value is given as “No”. Also, in assay [2], the “Detected auxin conjugates: 2,4-D-Asp” value is recorded as “Yes” and the “Detected auxin conjugates: 2,4-D-Glu” value is listed as “Yes”. Also, in assay [3], the “Detected auxin conjugates: IAA-Asp” value is on record as “Yes” and the “Detected auxin conjugates: IAA-Glu” value was “Yes”.

B2: GmGH3-2: GH3 protein, accession XP_003521802.1 (protein)
chain: MLEKVEEFNMDKVIQEFELLTRDAERVQRETLKRILEDNASAEYLQSLGLNGRTDPESFKACVPMVTHKELEPYIYRIIDGDASPILTGKPITTMSLSSGTTQGKPKYVPWNDELYETTMQIYQTSFAFRNREFPIKNGKALSFIYGSKQLKTKGGLAARTATSNVFCSAGYKCAMRALQSQCCSPDEVIFGPDFFQSLYCHLLCGLIFREEVEFVSSTFAHSIVHAFRTFEQVWEELCNDIREGVLTRNVTVPSIRMAMSKLLKPNPELANAIHKKCTGLSNWYGLIPELFPNAKYIYGIMTGSMEPYLKKMRHYAGELPLLTADYGSSEGWIAANVNPQLPPEYATYAVLPHIGYFEFIPLLELENTKPLGLTQVKVGQEYEIVMTNPAGLYRYRLGDVVKVMGFHNSTPELKFIRRSSLLLNINIDKNTEKDLQLAVEAAGKLLAEEKLEVVDFSSQVDLSKEPGHYVIFWEISGDASQELLHECCNCLDKSFVDAGYTSSRKVNCIGALELRLVRRGTFQKILDHYLGLGTAVSQYKTPRCVGPTNTRVLQILSENVVNNYLSTAFN
modifications: Glycine max
With B2, in assay [1], the “Detected auxin conjugates: Dicamba-Asp” value is “No” and the “Detected auxin conjugates: Dicamba-Glu” value was “No”. In assay [2], the “Detected auxin conjugates: 2,4-D-Asp” value is “No” and the “Detected auxin conjugates: 2,4-D-Glu” value was “No”. Besides, in assay [3], the “Detected auxin conjugates: IAA-Asp” value is listed as “Yes” and the “Detected auxin conjugates: IAA-Glu” value is “No”.

B3: SlGH3-1: GH3 protein, SL2.40ch01: 78555183-78557768 (protein, listed as Solanum lycopersicum)
chain: MLEKIEMKFDPEEVIEEFEALTKEAGKVQEETLKKILEENGSTVYLQQWGLNGRTDPEIFKSCVPLVTHKDLEPYIQRIADGDLSPVLTGKPITTISLSSGTTQGRPKFVPFNDELMESTMQIYKTSFAFRNREFPIENGKALQFIYSSKQFKTKGGLAAGTATTNVYRNAHFKKTMRAMQTPCCSPDEVIFGPDFHQSLYCHLLCGLIFRDEVQVVSSTFAHSIVHAFRTFEQVWEELVADIREGVISSRVTVPSMRSAIMKLLKPDPEQADSIYNKCSGLSNWYGLIPVLFPSARYIYGIMTGSMEPYLKKLRHYAGELPLLSADYGSSEGWIGANVNPKLPPELVTYAVLPNIGYFEFIPLRVNLDGLEPTPVGLAEVKLGEEYEIVVTNFAGLYRYRLGDVVKIKGFHNATPELQFICRSNLILSINIDKSTEKDLQLAVEAAARLLVDEKLEVVDFTSHANVATDPGHYVVFWELSGEASDETLQECCNCLDKSFVDAGYVGSRKVNVIGALELRVVKKGTFHKILDHFVGLGGAVSQFKTPRCVGQNNSRLLQILCYDVVKSYFSTAY
B3: in assay [1], the “Detected auxin conjugates: Dicamba-Asp” value is “No” and the “Detected auxin conjugates: Dicamba-Glu” value is listed as “No”. In assay [2], the “Detected auxin conjugates: 2,4-D-Asp” value was “No” and the “Detected auxin conjugates: 2,4-D-Glu” value is “No”. In assay [3], the “Detected auxin conjugates: IAA-Asp” value is listed as “Yes” and the “Detected auxin conjugates: IAA-Glu” value was “No”.

B4: ZmACN26159: GH3 protein, accession ACN26159 (protein)
chain: MTICSSEEIIDEFELLTRDARRVQQDTLRKILELNGDAEYLNRFNLGRRTDSKSFKSCIPLCVHSDIESYIQRIADGDDSPVLTGKPITSLSLSSGTTQGKPKFLPFNDELLESTFQIFRTSYAFRNREYPIVNGKALQFVYGSKQVFTQGGILAATATTNLYRSQRFKEAMKDVMTQCCSPDEVIFGPDFHQSLYCHLLCGLINSDEVQFVFSPFAHSLVHAFHSLEEVWEDLCADIRDGVLSKRVTAPSIRQAVSKILRPNPELASSIYIKCQSLSNWYGVIPTLWPNVKYIYGIMTGSMEPYLKKLRHYAGHLPLLSADYGASEGWVGSNINPTLPPEEVTYAVLPNIAYFEFIPLEKPKWEETEICSSVHYIESEPVGLTEVEVGKIYEVVITNFAGLYRYRLGDIVKIAGFHNATPELQFICRRSLVLSVNIDKNTEKDLQLAVEAAEKLLAAEKLEVVDFTSLVDRSSEPGHYVIFWELSSDDGASEDVLSGCASCMDLAFADAGYVGSRKTQTIGALELRVLRKGAFAQVMNHYLSLGGAVSQFKTPRFVSQSNSKVLQILSRNVTRSYFSTAYGL
modifications: Zea mays
As to B4, in assay [1], the “Detected auxin conjugates: Dicamba-Asp” value is given as “No” and the “Detected auxin conjugates: Dicamba-Glu” value is “No”. In assay [2], the “Detected auxin conjugates: 2,4-D-Asp” value was “No” and the “Detected auxin conjugates: 2,4-D-Glu” value was “No”. In assay [3], the “Detected auxin conjugates: IAA-Asp” value is listed as “No” and the “Detected auxin conjugates: IAA-Glu” value is given as “No”.

B5: SlGH3-14: GH3 protein, SGN-E745758 (protein, listed as Solanum lycopersicum)
chain: MKMMVENIEKKFDAEEVIEDFEVLTKDAGRIQEETLEKILKENGGTEYLKQWGLNGRTDVETFKACVPIVGHNDLEPYIQRIADGDLSPILTGKPIETISLSSGTTQGKPKFVPFNDELMDSTMQIFKTSFAFRNREFPIGNGKALQFIYSSKQFKTKGGLAAGTATTNVYRNAQFKKTMNAMSTPVCSPDEVIFGPDFQQSLYCHLLSGLIFRDEVQVVSSTFAHSIVHAFRTFEQVWEELVVDIREGVLSSRVTVPSIRLAMSKLLKPDPELAETIYSKCSSLSNWYGLIPELFPNTKYIYGIMTGSMEPYLKKLRHYAGELPLLSADYGSSEGWVGVNVNPKFPPEMVTYAVLPNIGYFEFLPLEENLVGVEQANSPVGLTEVKLGEEYEIVFTNFAGLYRYRLGDVVKIKGFHNGTPELQFVCRRNLLLSINIDKNTEKDLQLAVEAAGKHLVDEKLEVMDFTSHVNVSADPGHYVIFWELSGEATDEILQECCNCLDKSFLDAGYVSSRKVNAIGALELRIVKRGTFHKILDHFVGLGGAVSQFKTPRCVGPKNSSLIQILSSNVVKSYSSTAFC
For the molecule B5, in assay [1], the “Detected auxin conjugates: Dicamba-Asp” value is “No” and the “Detected auxin conjugates: Dicamba-Glu” value is “No”. Moreover, in assay [2], the “Detected auxin conjugates: 2,4-D-Asp” value is on record as “No” and the “Detected auxin conjugates: 2,4-D-Glu” value is listed as “No”. Also, in assay [3], the “Detected auxin conjugates: IAA-Asp” value is “No” and the “Detected auxin conjugates: IAA-Glu” value is listed as “No”.
